Laboratory results: patent US20240116985A1 (published 2024)
Starred links: 1 amine or outer side, 2 acyl side, 3 side chain; linkers in the order of their positions; H or OH if unused. Positions of bridges follow the written chain, without caps; N, C: chain ends. Non-standard residues stand in square brackets, D forms with d. Primed or numbered codes have the meaning given here. B5(4) = 2,2-bis(4-pentenyl)glycine = 2-amino-2-(pent-4-en-1-yl)hept-6-enoic acid (stitching residue), C=CCCCC(CCCC=C)(N[*:1])C(=O)[*:2]; B5(5) = 2,2-bis(4-pentenyl)glycine, 2-amino-2-(pent-4-en-1-yl)hept-6-enoic acid (stitching residue), C=CCCCC(CCCC=C)(N[*:1])C(=O)[*:2]; PyrS(3) = (S)-1-((allyloxy)carbonyl)-3-aminopyrrolidine-3-carboxylic acid, stapling residue, C=CCOC(=O)N1CC[C@@](N[*:1])(C(=O)[*:2])C1; PyrS″ = (S)-1-((allyloxy)carbonyl)-3-aminopyrrolidine-3-carboxylic acid (stapling residue), C=CCOC(=O)N1CC[C@@](N[*:1])(C(=O)[*:2])C1; B5(21) = 2-amino-2-(pent-4-en-1-yl)hept-6-enoic acid, bis(4-pentenyl)glycine (stitching residue), C=CCCCC(CCCC=C)(N[*:1])C(=O)[*:2]; RdN = (R)-4-(((allyloxy)carbonyl)(methyl)amino)-2-amino-2-methylbutanoic acid, C=CCOC(=O)N(C)CC[C@@](C)(N[*:1])C(=O)[*:2]; PyrS = (S)-1-((allyloxy)carbonyl)-3-aminopyrrolidine-3-carboxylic acid, C=CCOC(=O)N1CC[C@@](N[*:1])(C(=O)[*:2])C1; 6F1NapA = 2-amino-3-(6-fluoronaphthalen-1-yl)propanoic acid, O=C([C@H](Cc1cccc2cc(F)ccc12)N[*:1])[*:2]; B5(3) = 2,2-bis(4-pentenyl)glycine (stitching residue), C=CCCCC(CCCC=C)(N[*:1])C(=O)[*:2]; B5 = 2-amino-2-(pent-4-en-1-yl)hept-6-enoic acid, C=CCCCC(CCCC=C)(N[*:1])C(=O)[*:2]; Phe(3-CF3) = N[C@@H](Cc1cccc(C(F)(F)F)c1)C(=O)O; Phe(4-CF3) = N[C@@H](Cc1ccc(C(F)(F)F)cc1)C(=O)O; Trp(5-F) = N[C@@H](Cc1c[nH]c2ccc(F)cc12)C(=O)O; S7 = C[C@@](CCCCCC=[*:3])(N[*:1])C(=O)[*:2]; Bip = N[C@@H](Cc1ccc(-c2ccccc2)cc1)C(=O)O; 1Nal = N[C@@H](Cc1cccc2ccccc12)C(=O)O; 2Nal = N[C@@H](Cc1ccc2ccccc2c1)C(=O)O; Bta = N[C@@H](Cc1csc2ccccc12)C(=O)O; αAllylPro = C=CC[C@@]1(C(=O)O)CCCN1; 2Pal = N[C@@H](Cc1ccccn1)C(=O)O; R8 = C=CCCCCCC[C@@](C)(N)C(=O)O; S8 = C=CCCCCCC[C@](C)(N)C(=O)O; Nle = CCCC[C@H](N)C(=O)O; Aib = CC(C)(N)C(=O)O

B1: I-150 (peptide)
peptide: DIXDDAAFQXFWH
modifications: not fully specified; as printed: Ac-Asp-Ile-RdN-Asp-Asp-Ala-Ala-Phe-Gln-S7-Phe-Trp-His-NH2; N-terminal acetyl, C-terminal amide; RdN(3), S7(10); staple RdN-S7 by olefin metathesis
notes: stapled peptide
B2: I-138 (peptide)
peptide: Ac-[αAllylPro]DA[B5(4)]D[Nle]AAFV[S8]FWQ-NH2
modifications: staple 1-4, 4-11; not fully specified; printed as Ac-PL3-Asp-Ala-B5-Asp-nLeu-Ala-Ala-Phe-Val-S8-Phe-Trp-Gln-NH2
notes: stapled peptide
B3: I-139 (peptide)
peptide: Ac-[αAllylPro]DA[B5(21)]D[Nle]AAFV[S8]FWQ-NH2
modifications: staple 1-4, 4-11; not fully specified; printed as Ac-PL3-Asp-Ala-B5-Asp-nLeu-Ala-Ala-Phe-Val-S8-Phe-Trp-Gln-NH2
notes: stapled peptide
B4: I-136 (peptide)
peptide: XDAXDEAAFVXFXQ
modifications: not fully specified; as printed: Ac-PL3-Asp-Ala-B5-Asp-Glu-Ala-Ala-Phe-Val-S8-Phe-aMeW-Gln-NH2; N-terminal acetyl, C-terminal amide; PL3(1), B5(4), S8(11), aMeW(13); staples PL3-B5 and B5-S8 by olefin metathesis
notes: stapled peptide
B5: I-149 (peptide)
peptide: DIXDDAAFQXFWH
modifications: not fully specified; as printed: Ac-Asp-Ile-RdN-Asp-Asp-Ala-Ala-Phe-Gln-S7-Phe-Trp-His-NH2; N-terminal acetyl, C-terminal amide; RdN(3), S7(10); staple RdN-S7 by olefin metathesis
notes: stapled peptide
B6: I-137 (peptide)
peptide: XDAXDEAAFVXFXQ
modifications: not fully specified; as printed: Ac-PL3-Asp-Ala-B5-Asp-Glu-Ala-Ala-Phe-Val-S8-Phe-aMeW-Gln-NH2; N-terminal acetyl, C-terminal amide; PL3(1), B5(4), S8(11), aMeW(13); staples PL3-B5 and B5-S8 by olefin metathesis
notes: stapled peptide
B7: I-234 (peptide)
peptide: Ac-[αAllylPro]DA[B5(3)]D[1Nal]AAFV[S8]FWQ-NH2
modifications: staple 1-4, 4-11
notes: Stapled peptide composition; also called Ac-PL3-Asp-Ala-B5-Asp-1NapA-Ala-Ala-Phe-Val-S8-Phe-Trp-Gln-NH2
B8: I-231 (peptide)
peptide: Ac-[αAllylPro]DA[B5(4)]D[Bta]AAFV[S8]FWQ-NH2
modifications: staple 1-4, 4-11
notes: Stapled peptide composition; also called Ac-PL3-Asp-Ala-B5-Asp-BztA-Ala-Ala-Phe-Val-S8-Phe-Trp-Gln-NH2
B9: I-252 (peptide)
peptide: Ac-[αAllylPro]DA[B5(4)]DDAAFV[S8][Phe(4-CF3)]WQ-NH2
modifications: staple 1-4, 4-11
notes: Stapled peptide composition; also called Ac-PL3-Asp-Ala-B5-Asp-Asp-Ala-Ala-Phe-Val-S8-4F3MeF-Trp-Gln-NH2
B10: I-223 (peptide)
peptide: Ac-FDA[R8]DDAAFT[PyrS″]FWQ-NH2
modifications: staple 4-11
notes: Stapled peptide composition; also called Ac-Phe-Asp-Ala-R8-Asp-Asp-Ala-Ala-Phe-Thr-PyrS-Phe-Trp-Gln-NH2
B11: I-222 (peptide)
peptide: Ac-FDA[R8]DDAAFT[PyrS″]FWQ-NH2
modifications: staple 4-11
notes: as for B10
B12: I-239 (peptide)
peptide: Ac-[αAllylPro]DA[B5(5)]DDAA[Phe(3-CF3)]V[S8]FWQ-NH2
modifications: staple 1-4, 4-11; not fully specified; printed as Ac-PL3-Asp-Ala-B5-Asp-Asp-Ala-Ala-3F3MeF-Val-S8-Phe-Trp-Gln-NH2
notes: Stapled peptide composition; also called Ac-PL3-Asp-Ala-B5-Asp-Asp-Ala-Ala-3F3MeF-Val-S8-Phe-Trp-Gln-NH2
B13: I-230 (peptide)
peptide: Ac-[αAllylPro]DA[B5(4)][2Pal]EAAFV[S8]FWQ-NH2
modifications: staple 1-4, 4-11; also: separate staple isomer composition
notes: Stapled peptide composition; also called Ac-PL3-Asp-Ala-B5-2pyrA-Glu-Ala-Ala-Phe-Val-S8-Phe-Trp-Gln-NH2
B14: I-253 (peptide)
peptide: Ac-[αAllylPro]DA[B5(4)]DDAAFV[S8][Phe(4-CF3)]WQ-NH2
modifications: staple 1-4, 4-11
notes: as for B9
B15: I-235 (peptide)
peptide: Ac-[αAllylPro]DA[B5(3)]D[Bip]AAFV[S8]FWQ-NH2
modifications: staple 1-4, 4-11
notes: Stapled peptide composition; also called Ac-PL3-Asp-Ala-B5-Asp-Bip-Ala-Ala-Phe-Val-S8-Phe-Trp-Gln-NH2
B16: I-243 (peptide)
peptide: Ac-[αAllylPro]DA[B5(5)]DDAA[Phe(4-CF3)]V[S8]FWQ-NH2
modifications: staple 1-4, 4-11; not fully specified; printed as Ac-PL3-Asp-Ala-B5-Asp-Asp-Ala-Ala-4F3MeF-Val-S8-Phe-Trp-Gln-NH2
notes: Stapled peptide composition; also called Ac-PL3-Asp-Ala-B5-Asp-Asp-Ala-Ala-4F3MeF-Val-S8-Phe-Trp-Gln-NH2
B17: I-229 (peptide)
peptide: Ac-[αAllylPro]DA[B5(4)][2Pal]EAAFV[S8]FWQ-NH2
modifications: staple 1-4, 4-11; also: separate staple isomer composition
notes: as for B13
B18: I-237 (peptide)
peptide: Ac-[αAllylPro]DA[B5(3)]DDAA[Phe(3-CF3)]V[S8]FWQ-NH2
modifications: staple 1-4, 4-11
notes: as for B12
B19: I-238 (peptide)
peptide: Ac-[αAllylPro]DA[B5(3)]DDAA[Phe(3-CF3)]V[S8]FWQ-NH2
modifications: staple 1-4, 4-11
notes: as for B12
B20: I-224 (peptide)
peptide: Ac-FDA[R8]DDAAFT[PyrS]FWQ-NH2
modifications: staple 4-11
notes: as for B10
B21: I-232 (peptide)
peptide: Ac-[αAllylPro]DA[B5(4)]D[2Nal]AAFV[S8]FWQ-NH2
modifications: staple 1-4, 4-11
notes: Stapled peptide composition; also called Ac-PL3-Asp-Ala-B5-Asp-2NapA-Ala-Ala-Phe-Val-S8-Phe-Trp-Gln-NH2
B22: I-242 (peptide)
peptide: Ac-[αAllylPro]DA[B5(5)]DDAA[Phe(4-CF3)]V[S8]FWQ-NH2
modifications: staple 1-4, 4-11; not fully specified; printed as Ac-PL3-Asp-Ala-B5-Asp-Asp-Ala-Ala-4F3MeF-Val-S8-Phe-Trp-Gln-NH2
notes: as for B16
B23: I-240 (peptide)
peptide: Ac-[αAllylPro]DA[B5(5)]DDAA[Phe(4-CF3)]V[S8]FWQ-NH2
modifications: staple 1-4, 4-11; not fully specified; printed as Ac-PL3-Asp-Ala-B5-Asp-Asp-Ala-Ala-4F3MeF-Val-S8-Phe-Trp-Gln-NH2
notes: as for B16
B24: I-249 (peptide)
peptide: Ac-[αAllylPro]DA[B5(4)]DDAAFV[S8][Phe(3-CF3)]WQ-NH2
modifications: staple 1-4, 4-11
notes: Stapled peptide composition; also called Ac-PL3-Asp-Ala-B5-Asp-Asp-Ala-Ala-Phe-Val-S8-3F3MeF-Trp-Gln-NH2
B25: I-248 (peptide)
peptide: Ac-[αAllylPro]DA[B5(4)]DDAAFV[S8][Phe(3-CF3)]WQ-NH2
modifications: staple 1-4, 4-11
notes: as for B24
B26: I-241 (peptide)
peptide: Ac-[αAllylPro]DA[B5(5)]DDAA[Phe(4-CF3)]V[S8]FWQ-NH2
modifications: staple 1-4, 4-11; not fully specified; printed as Ac-PL3-Asp-Ala-B5-Asp-Asp-Ala-Ala-4F3MeF-Val-S8-Phe-Trp-Gln-NH2
notes: as for B16

target: T1, full-length beta-Catenin (Uniprot ID P35222) (Homo sapiens (Human), UniProt P35222 2-781); test: AlphaScreen competition; full-length beta-catenin with biotin-TCF4(10-53) probe as competitor
T1 construct: the AlphaScreen assay uses a Histidine (Nickel Chelate) detection kit, so a His tag is likely there; also called B-Catenin; bCat
T1 sequence: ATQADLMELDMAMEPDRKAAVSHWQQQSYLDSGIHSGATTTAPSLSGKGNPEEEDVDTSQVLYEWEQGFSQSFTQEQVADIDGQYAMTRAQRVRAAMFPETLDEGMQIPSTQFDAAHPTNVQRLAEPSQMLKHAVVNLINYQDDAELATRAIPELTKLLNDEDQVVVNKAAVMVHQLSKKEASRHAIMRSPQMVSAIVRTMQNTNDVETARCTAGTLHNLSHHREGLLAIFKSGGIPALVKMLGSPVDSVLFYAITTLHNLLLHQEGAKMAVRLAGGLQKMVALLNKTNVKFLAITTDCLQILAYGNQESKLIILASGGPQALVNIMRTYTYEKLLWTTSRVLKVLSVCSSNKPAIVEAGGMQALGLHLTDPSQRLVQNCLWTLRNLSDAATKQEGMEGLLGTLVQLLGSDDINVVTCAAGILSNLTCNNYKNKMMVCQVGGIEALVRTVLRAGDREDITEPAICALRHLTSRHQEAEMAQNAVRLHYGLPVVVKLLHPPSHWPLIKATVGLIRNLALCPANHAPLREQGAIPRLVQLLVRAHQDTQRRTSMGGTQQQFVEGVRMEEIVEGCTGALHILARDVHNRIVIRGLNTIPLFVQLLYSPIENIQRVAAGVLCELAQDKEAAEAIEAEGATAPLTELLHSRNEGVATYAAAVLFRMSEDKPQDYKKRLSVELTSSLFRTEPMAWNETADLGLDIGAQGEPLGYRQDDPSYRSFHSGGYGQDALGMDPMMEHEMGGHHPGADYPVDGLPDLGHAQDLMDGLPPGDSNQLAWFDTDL
Experimental: (§1) Equal volume of the titrated peptide was added to the plate and incubated for 15 minutes at 20° C. Then 4 uL of donor and 4 uL acceptor beads at 10 ug/mL were added to the plate, for a 16 uL reaction pool and protected from light for 60 minutes at 20° C. prior to read. Reads were performed on a CLARIOstar plate reader (BMG Labtech) in duplicate, and data were fitted to a 1:1 binding model with hill slope using an in-house script. All provided concentrations are final concentrations.

Binder	EC50 [µM]
B1	1.94
Ac-[αAllylPro]DA[B5]DEAAFV[S8]F[Bip]Q-NH2 (staple 1-4, 4-11, stapled peptide composition) [I-145]	≥ 10
B2	≥ 10
Ac-[αAllylPro]DA[B5(4)]DEAAFV[S8]F[6F1NapA]Q-NH2 (staple 1-4, 4-11, stapled peptide composition) [I-142]	7.37
Ac-ADA[RdN]DEAAFQ[S7]FWH-NH2 (staple 4-11, stapled peptide composition) [I-156]	4.18
Ac-[Aib]DA[R8]DEAAFV[PyrS(3)]FWQ-NH2 (staple 4-11; also: later-eluting staple isomer, stapled peptide) [I-158]	2.17
Ac-[Aib]DA[R8]DEAAFV[PyrS]FWQ-NH2 (staple 4-11; also: earlier-eluting staple isomer, stapled peptide) [I-157]	4.06
B3	≥ 10
B4	3.3
B5	1.79
Ac-[αAllylPro]DA[B5(4)]DEAAFV[S8]F[Trp(5-F)]Q-NH2 (staple 1-4, 4-11, stapled peptide composition) [I-146]	1.22
B6	1.41
Ac-DI[RdN]DDAAFQ[S7]FW-NH2 (staple 3-10, stapled peptide composition) [I-151]	5.5

target: T2, full-length beta-Catenin (Uniprot ID P35222) (Homo sapiens (Human), UniProt P35222 2-781); test: AlphaScreen competition: full-length beta-catenin + biotin-TCF4(10-53) probe, peptide titrated
T2 construct: The AlphaScreen assay used a Histidine (Nickel Chelate) detection kit, so a His tag is likely, but no tag is described; also called B-Catenin; bCat
T2 sequence: T1 sequence
Experimental: as §1

Binder	EC50 [µM]
B7	7.53
B8	6.53
B9	3.69
B10	4.12
B11	6.58
B12	0.267
B13	4.61
B14	3.69
B15	7.34
B16	4.91
B17	5.81
B18	0.384
B19	0.267
B20	4.12
B21	7.64
B22	4.91
B23	3.47
B24	2.83
B25	2.83
B26	3.47
